This is an account of results in patent US7265201 (Takeda / Millennium, dated 2007).

Assay [1] concerns the target T1, synthetic human eotaxin (predicted mature protein consisting of amino acids 24-97) (human, UniProt P51671 24-97).
T1 construct: also called clone #25 polypeptide; synthetic mature eotaxin
Kind of assay: Scatchard analysis of competition of unlabeled eotaxin with 125I-eotaxin on purified human eosinophils. On the procedure:
Binding of RANTES, MIP-1α and human eotaxin was carried out in binding buffer consisting of 50 mM HEPES supplemented with 1 mM CaCl_2, 5 mM MgCl_2 and 0.5% BSA. […] The final reaction volume was 200 μls. Total binding was carried out in the absence of unlabeled chemokines, and non-specific binding was determined by incubating cells with radiolabeled chemokine in the presence of 250 nM of cold chemokine. At the end of incubation, cells were washed 3 times in binding buffer plus 0.5 M NaCl. The cell pellets were transferred into LP3 tubes and counted in a gamma counter.
RANTES and MIP-1a were not able to compete with eotaxin under the conditions used. […] The observed dissociation constant is analogous to other chemokine-receptor dissociation constants.

Assay [2] deals with T1, synthetic human eotaxin (predicted …). Kind of assay: radiolabeled eotaxin on 5×10^5 transfected L1-2 cells, with or without 125 nM unlabeled eotaxin. On the procedure: Figure 11: FIG. 11 is a bar graph illustrating the binding of human eotaxin to CKR-3 transfected L1-2 cells. Radiolabeled eotaxin was incubated with 5 ×10^5 transfected cells or untransfected L1-2 cells.

T1 sequence (P51671 24-97): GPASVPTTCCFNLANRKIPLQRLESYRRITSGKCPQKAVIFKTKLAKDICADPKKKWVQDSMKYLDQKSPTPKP

B1: receptor for eotaxin on purified human eosinophils (single class of high affinity binding sites) (receptor)
chain: MTTSLDTVETFGTTSYYDDVGLLCEKADTRALMAQFVPPLYSLVFTFGLLGNVVVVMILIKYRRLRIMTNIYLLNLAISDLLFLVTLPFWIHYVRGHNWVFGHGMCKLLSGFYHTGLYSEIFFIILLTIDRYLAIVHAVFALRARTVTFGVITSIVTWGLAVLAALPEFIFYETEELFEETLCSALYPEDTVYSWRHFHTLRMTIFCLVLPLLVMAICYTGIIKTLLRCPSKKKYKAIRLIFVIMAVFFIFWTPYNVAILLSSYQSILFGNDCERTKHLDLVMLVTEVIAYSHCCMNPVIYAFVGERFRKYLRHFFHRHLLMHLGRYIPFLPSEKLERTSSVSPSTAEPELSIVF
A word on the Kd: it is the constant that tells how readily two partners part at equilibrium. Consider B1, for which, in assay [1], the Kd is 4.7 nM.

B2: FLAG-tagged human C-C chemokine receptor 3 (CKR-3) expressed on transfected mouse L1-2 pre-B lymphoma cells (receptor)
chain: MDYKDDDDKEFTTSLDTVETFGTTSYYDDVGLLCEKADTRALMAQFVPPLYSLVFTFGLLGNVVVVMILIKYRRLRIMTNIYLLNLAISDLLFLVTLPFWIHYVRGHNWVFGHGMCKLLSGFYHTGLYSEIFFIILLTIDRYLAIVHAVFALRARTVTFGVITSIVTWGLAVLAALPEFIFYETEELFEETLCSALYPEDTVYSWRHFHTLRMTIFCLVLPLLVMAICYTGIIKTLLRCPSKKKYKAIRLIFVIMAVFFIFWTPYNVAILLSSYQSILFGNDCERTKHLDLVMLVTEVIAYSHCCMNPVIYAFVGERFRKYLRHFFHRHLLMHLGRYIPFLPSEKLERTSSVSPSTAEPELSIVF
notes: also called C-C CKR-3; CC-CKR-3
Take B2: the binding result in assay [2] is “binds”.
